Data from doi:10.1101/2021.09.13.460021.

Tests used:
[1] = molecular target: biotinylated histone H3K9me3 peptide; test: pull-down + far-Western, overlay or dot blot
[2] = molecular target: biotinylated unmodified histone H3 peptide; test: pull-down + far-Western, overlay or dot blot

B1: GST tagged recombinant chromodomain (PfCD) of the chromodomain-containing protein PfCDP, wild type (domain or fragment)
chain: NEVFEVEKIIMARYKLNCKRKKNRKDENLDDFEFYIKWKNYDSDENTWEPFENLSPNLKGQARKVAL
What does the source list for B1?
Kd [1]: 38 nM; Kd [2]: 175 nM
